Results published in the supplement of paper PMC12764529.
± gives the half width of the 95% confidence interval.

experiment: folding stability dG unfold from chymotrypsin proteolysis; higher = more stable
Method in brief: (§1)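 How resistant each design was to proteolysis was captured as K50, inferred by Bayesian fitting of sequencing counts. Unfolding free energy was then derived relative to a sequence-predicted unfolded-state K50 and a shared folded-state K50, per protease or combined. Digestion used trypsin and chymotrypsin at 11 threefold-diluted concentrations plus a no-protease condition, on mini-proteins under 80 residues without cysteine in a PA-tagged cDNA display construct. Designs were kept only when AlphaFold2 dimer inter-PAE was above 15.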

Sequence | folding stability dG unfold
SAGGSAGGSKPRPIDIMFPNPENGRPVMIRIEYTKDKIKAEWYFGNKPQEKKIDDPEDLLEFISAGGSAGGS [r12_299_TrROS] | 1.08 ± 0.1 kcal/mol
SAGGSAGGSAVPLTVLEEEKGEGTVVVITRGPDGKLIVTTYTKDPNSEKWTEKRTVLAPEELLSAGGSAGGS [r20_70_JUSTAS] | 2.08 ± 0.067 kcal/mol
SAGGSAGGSAGGTAEAVRKLAEEFSQQHGMPIKDVEVQRPPNKWKPVIRYPDNGKWIEISAGGSAGGSAGGS [r10_161_TrROS] | 0.465 ± 0.13 kcal/mol
SAGGSAGGSAGGKEEEARKLAEELAKELGLEIVEVKVERTEKEVKVTIRIKKDGKEIEFSAGGSAGGSAGGS [r10_161_TrROS_Hall] | 1.36 ± 0.025 kcal/mol
SKKVKPIATIDVEGMSLEELLAAIKAALPPGEKAIVRIVNADGEVRTIEIDAKTGEIKSLPPGARIYIYPSA [r9_853_TrROS_Hall] | 1.95 ± 0.035 kcal/mol
SAGGSMTIKINGAEITDIEVRDDGTIRIKVRVTNENGEEVEVTLEIRIEPAPPVEVVHPDDPEALESAGGSA [r2_368_TrROS_Hall] | 2.45 ± 0.066 kcal/mol
SKYRILIHTPNPGMPPEEIIDELEEPGFKDVEVVDSPSELKELPPNYDIVIMFHNGQFQISIFPPEELDKSA [r9_750_TrROS] | 1.4 ± 0.31 kcal/mol
SAGMMKVKIELTIVVETKEEAEKLAEELKKALEELGIKEVKVTVEYDKETKKVTVTVEIEIELEPELLSAGG [r19_92_TrROS_Hall] | 2.17 ± 0.1 kcal/mol
SAGGSAGGSWITPEWIEEIARYLARELGIDDVKIEVERRPDGYVTVEIRNPANGRKVEITVPWSAGGSAGGS [r12_1000_TrROS] | 3.06 ± 0.1 kcal/mol
SAGGSAGGSAGGSMIVLRMSADEIKKLLPPGAKIKKIEYDEETDEVYVIIEFDKDGKIISAGGSAGGSAGGS [r4_435_TrROS_Hall] | 1.32 ± 0.092 kcal/mol
SKKKTLKIVDKETNVVIEMTAEELAEKLGLSVEDLEIEVVDLKTKEVKTIKIKLPKPKPEEKKKVKEEEKSA [r9_819_TrROS_Hall] | 1.18 ± 0.046 kcal/mol
SAGGSAEEEVVETEVVYDPETKELHVRTKVFKPKPEITIEVDMSLEEVKALLEELTGRKIDRVEIKSAGGSA [r15_101_TrROS_Hall] | 1.68 ± 0.05 kcal/mol
SAGGSAGGSAGGIKPGEKPVYKVKIYNEETGEELEVEFKTLEELEKLKIPGVKKIEVEKVSAGGSAGGSAGG [r7_793_TrROS_Hall] | 1.35 ± 0.045 kcal/mol
SAGGSAGGSAGDDGDKKPEVKVKVKIEPTIIPSPNGELMLMWTLEIEYPGNGEKREFTFMSAGGSAGGSAGG [r17_59_TrROS] | 1.92 ± 0.13 kcal/mol
SMPKKIIVLEVDEEEIKEFLEKLELGEDTEVKILLSFPDGKTALLEIGPNEIKSIKPIDAIPEKAYIVIASA [r9_849_TrMRF] | 0.755 ± 0.14 kcal/mol
SAGGTKTINIKNMPPNDPERMVRTARHLLKELKQKGPGKTITIHMDNPWAREVAEYLKKEGIPIEVHSAGGS [r16_450_TrROS] | 1.09 ± 0.15 kcal/mol
SAGGSEKVTIELEFRNPETGELIATVKIELERLPNGEIKAKIEFTNLPEGVELSEEMKKLLEELLKSAGGSA [r2_7_TrROS_Hall] | 2.93 ± 0.19 kcal/mol

experiment: folding stability dG unfold from trypsin proteolysis; higher = more stable
Method in brief: as §1

Sequence | folding stability dG unfold
SAGGSAGGSKPRPIDIMFPNPENGRPVMIRIEYTKDKIKAEWYFGNKPQEKKIDDPEDLLEFISAGGSAGGS [r12_299_TrROS] | 0.0886 ± 0.055 kcal/mol
SAGGSAGGSAVPLTVLEEEKGEGTVVVITRGPDGKLIVTTYTKDPNSEKWTEKRTVLAPEELLSAGGSAGGS [r20_70_JUSTAS] | 1.73 ± 0.022 kcal/mol
SAGGSAGGSAGGTAEAVRKLAEEFSQQHGMPIKDVEVQRPPNKWKPVIRYPDNGKWIEISAGGSAGGSAGGS [r10_161_TrROS] | 0.298 ± 0.086 kcal/mol
SAGGSAGGSAGGKEEEARKLAEELAKELGLEIVEVKVERTEKEVKVTIRIKKDGKEIEFSAGGSAGGSAGGS [r10_161_TrROS_Hall] | 1.09 ± 0.048 kcal/mol
SKKVKPIATIDVEGMSLEELLAAIKAALPPGEKAIVRIVNADGEVRTIEIDAKTGEIKSLPPGARIYIYPSA [r9_853_TrROS_Hall] | 2.1 ± 0.027 kcal/mol
SAGGSMTIKINGAEITDIEVRDDGTIRIKVRVTNENGEEVEVTLEIRIEPAPPVEVVHPDDPEALESAGGSA [r2_368_TrROS_Hall] | 3.09 ± 0.16 kcal/mol
SKYRILIHTPNPGMPPEEIIDELEEPGFKDVEVVDSPSELKELPPNYDIVIMFHNGQFQISIFPPEELDKSA [r9_750_TrROS] | 0.316 ± 0.14 kcal/mol
SAGMMKVKIELTIVVETKEEAEKLAEELKKALEELGIKEVKVTVEYDKETKKVTVTVEIEIELEPELLSAGG [r19_92_TrROS_Hall] | 2.18 ± 0.21 kcal/mol
SAGGSAGGSWITPEWIEEIARYLARELGIDDVKIEVERRPDGYVTVEIRNPANGRKVEITVPWSAGGSAGGS [r12_1000_TrROS] | 3.38 ± 0.14 kcal/mol
SAGGSAGGSAGGSMIVLRMSADEIKKLLPPGAKIKKIEYDEETDEVYVIIEFDKDGKIISAGGSAGGSAGGS [r4_435_TrROS_Hall] | 1.53 ± 0.028 kcal/mol
SKKKTLKIVDKETNVVIEMTAEELAEKLGLSVEDLEIEVVDLKTKEVKTIKIKLPKPKPEEKKKVKEEEKSA [r9_819_TrROS_Hall] | -0.336 ± 0.23 kcal/mol
SAGGSAEEEVVETEVVYDPETKELHVRTKVFKPKPEITIEVDMSLEEVKALLEELTGRKIDRVEIKSAGGSA [r15_101_TrROS_Hall] | 0.433 ± 0.035 kcal/mol
SAGGSAGGSAGGIKPGEKPVYKVKIYNEETGEELEVEFKTLEELEKLKIPGVKKIEVEKVSAGGSAGGSAGG [r7_793_TrROS_Hall] | 0.786 ± 0.16 kcal/mol
SAGGSAGGSAGDDGDKKPEVKVKVKIEPTIIPSPNGELMLMWTLEIEYPGNGEKREFTFMSAGGSAGGSAGG [r17_59_TrROS] | 1.33 ± 0.071 kcal/mol
SMPKKIIVLEVDEEEIKEFLEKLELGEDTEVKILLSFPDGKTALLEIGPNEIKSIKPIDAIPEKAYIVIASA [r9_849_TrMRF] | 1.71 ± 0.14 kcal/mol
SAGGTKTINIKNMPPNDPERMVRTARHLLKELKQKGPGKTITIHMDNPWAREVAEYLKKEGIPIEVHSAGGS [r16_450_TrROS] | 0.581 ± 0.17 kcal/mol
SAGGSEKVTIELEFRNPETGELIATVKIELERLPNGEIKAKIEFTNLPEGVELSEEMKKLLEELLKSAGGSA [r2_7_TrROS_Hall] | 2.5 ± 0.31 kcal/mol

experiment: folding stability dG unfold (combined trypsin and chymotrypsin); higher = more stable
Method in brief: as §1

Sequence | folding stability dG unfold
SAGGSAGGSKPRPIDIMFPNPENGRPVMIRIEYTKDKIKAEWYFGNKPQEKKIDDPEDLLEFISAGGSAGGS [r12_299_TrROS] | 0.754 ± 0.096 kcal/mol
SAGGSAGGSAVPLTVLEEEKGEGTVVVITRGPDGKLIVTTYTKDPNSEKWTEKRTVLAPEELLSAGGSAGGS [r20_70_JUSTAS] | 1.98 ± 0.054 kcal/mol
SAGGSAGGSAGGTAEAVRKLAEEFSQQHGMPIKDVEVQRPPNKWKPVIRYPDNGKWIEISAGGSAGGSAGGS [r10_161_TrROS] | 0.388 ± 0.2 kcal/mol
SAGGSAGGSAGGKEEEARKLAEELAKELGLEIVEVKVERTEKEVKVTIRIKKDGKEIEFSAGGSAGGSAGGS [r10_161_TrROS_Hall] | 1.29 ± 0.12 kcal/mol
SKKVKPIATIDVEGMSLEELLAAIKAALPPGEKAIVRIVNADGEVRTIEIDAKTGEIKSLPPGARIYIYPSA [r9_853_TrROS_Hall] | 2.02 ± 0.048 kcal/mol
SAGGSMTIKINGAEITDIEVRDDGTIRIKVRVTNENGEEVEVTLEIRIEPAPPVEVVHPDDPEALESAGGSA [r2_368_TrROS_Hall] | 2.73 ± 0.097 kcal/mol
SKYRILIHTPNPGMPPEEIIDELEEPGFKDVEVVDSPSELKELPPNYDIVIMFHNGQFQISIFPPEELDKSA [r9_750_TrROS] | 0.937 ± 0.2 kcal/mol
SAGMMKVKIELTIVVETKEEAEKLAEELKKALEELGIKEVKVTVEYDKETKKVTVTVEIEIELEPELLSAGG [r19_92_TrROS_Hall] | 2.17 ± 0.23 kcal/mol
SAGGSAGGSWITPEWIEEIARYLARELGIDDVKIEVERRPDGYVTVEIRNPANGRKVEITVPWSAGGSAGGS [r12_1000_TrROS] | 3.16 ± 0.19 kcal/mol
SAGGSAGGSAGGSMIVLRMSADEIKKLLPPGAKIKKIEYDEETDEVYVIIEFDKDGKIISAGGSAGGSAGGS [r4_435_TrROS_Hall] | 1.49 ± 0.069 kcal/mol
SKKKTLKIVDKETNVVIEMTAEELAEKLGLSVEDLEIEVVDLKTKEVKTIKIKLPKPKPEEKKKVKEEEKSA [r9_819_TrROS_Hall] | 0.75 ± 0.15 kcal/mol
SAGGSAEEEVVETEVVYDPETKELHVRTKVFKPKPEITIEVDMSLEEVKALLEELTGRKIDRVEIKSAGGSA [r15_101_TrROS_Hall] | 1.34 ± 0.084 kcal/mol
SAGGSAGGSAGGIKPGEKPVYKVKIYNEETGEELEVEFKTLEELEKLKIPGVKKIEVEKVSAGGSAGGSAGG [r7_793_TrROS_Hall] | 1.2 ± 0.2 kcal/mol
SAGGSAGGSAGDDGDKKPEVKVKVKIEPTIIPSPNGELMLMWTLEIEYPGNGEKREFTFMSAGGSAGGSAGG [r17_59_TrROS] | 1.58 ± 0.17 kcal/mol
SMPKKIIVLEVDEEEIKEFLEKLELGEDTEVKILLSFPDGKTALLEIGPNEIKSIKPIDAIPEKAYIVIASA [r9_849_TrMRF] | 1.08 ± 0.2 kcal/mol
SAGGTKTINIKNMPPNDPERMVRTARHLLKELKQKGPGKTITIHMDNPWAREVAEYLKKEGIPIEVHSAGGS [r16_450_TrROS] | 0.947 ± 0.14 kcal/mol
SAGGSEKVTIELEFRNPETGELIATVKIELERLPNGEIKAKIEFTNLPEGVELSEEMKKLLEELLKSAGGSA [r2_7_TrROS_Hall] | 2.77 ± 0.34 kcal/mol
